From the nanobody polyreactivity screen of Harvey et al. (2022)

assay: yeast display, Sf9 membrane polyspecificity reagent, FACS + sequencing; frameworks hold sequencing errors
Outline: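 Galactose induction of a Saccharomyces cerevisiae BJ5465 synthetic nanobody display library ran 36–48 hours. The cells were then stained for 1 hour at 4 °C with 10% biotinylated, detergent-solubilized Sf9 membrane reagent, pulled down on streptavidin microbeads and FACS-sorted into low and high (top ~1%) gates on expression and reagent-binding fluorescence. Labels for polyreactivity follow the gate of origin.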

Sequence | polyreactivity (PSR sort gate)
QVQLVESGGGLVQAGGSLRLSCAASGSTFPYYAMGWYRQEPGKERELVASIRKRGGGTYYADSVKGRFTISRDNAKNTVYLQMNSLKPEDTAVYYCAVRVYQFRYTGYDYWGQGTQVTVSS | high polyreactivity
QVQLVESGGGLVQAGGSLRLSCAASGSTFPYYTMGWYRQAPGKERELVAAITWRGGRTYYADSVKGRFTISRDNAKNTVYLQMNSLKPEDTAVYYCAAKQKHTQQTGWKYEYWGQGTQVTVSS | high polyreactivity
QVQLVESGGGLVQAGGSLRLSCAASGSTFPYYVMGWYRQAPGKERELVASIRSNSGRTYYADSVKGRFTISRDNAKNTVYLQMNSLKPEDTAVYYCNAGVPRYAYTYVKGYYWGQGTQVTVSS | high polyreactivity
QVQLVESGGGLVQAGGSLRLSCAASGSTFQFYAMGWYRQAPGKEREFVAAIDFGGAGTYYADSVKGRFTISRDTAKNTVYLQMNSLKPEDTAVYYCNARDGVTSEFDYWGQGTQVTVSS | low polyreactivity
QVQLVESGGGLVQAGGSLRLSCAASGSTFQFYAMGWYRQAPGKERELVAAIRSSDDSTYYADSVKGRFTISRDNAKNTVYLQMNSLKPEDTAVYYCAAVQDYYGVWYDYWGQGTQVTVSS | high polyreactivity
QVQLVESGGGLVQAGGSLRLSCAASGSTFQFYAMGWYRQAPGKERELVAAISVSGDRTYYADSVKARFTISRDNAKNTVYLQMNSLKPEDSAVYYCAARYGPFKRRFDYWGLGTQVTVSS | high polyreactivity
QVQLVESGGGLVQAGGSLRLSCAASGSTFQGNAMGWYSQAPGKERELVAAISRSGGSTYADSVKGRFTISRDNAKNTVYLQMNSLKPEDTAVYYCAAYSGVGYLWFDYWGQGTQVTVSS | low polyreactivity
QVQLVESGGGLVQAGGSLRLSCAASGSTFQGYAMGWYRPAPGTERELVAAINYSGGSTYYADSVKGRFTISRDNAKNTVYVLMNSLKPEDTAVYYCAVKLRSRAGTSYGYWGQGTQVTVSS | high polyreactivity
QVQLVESGGGLVQAGGSLRLSCAASGSTFQGYAMGWYRQAPGKEREFVAAISRSGGRTYYADSVKGRFTISRDNAKNTVYLQMNSLKPEDTAVYYCAALPYWEYGYWGQGTQVTVSS | high polyreactivity
QVQLVESGGGLVQAGGSLRLSCAASGSTFQGYAMGWYRQAPGKERELVAVINRSGTNTYYADSVKGRFTISRDNAKNTVYLQMNSLKPEDTAVYYCNAQPSSKPPTYYYWGQGTQVTVSS | high polyreactivity
QVQLVESGGGLVQAGGSLRLSCAASGSTFQIYTMGWYRQAPGKERELVAAITNGGGSTYYADSVKGRFTISRDNAKNTVYLQMNSLKPEDTAVYYCAAEQRYPLIILYDYWGQGTHVTVSS | low polyreactivity
QVQLVESGGGLVQAGGSLRLSCAASGSTFQIYVKGWYRQAPGKERELVAAISGSGVRTYYADSVKGRFTISRDTAKNTVYIQMHSLKPEDTAVYYCAVDYKSDWAYDYWGQGTQVTVSS | high polyreactivity
QVQLVESGGGLVQAGGSLRLSCAASGSTFQLYAMGWYRQAPGKEREFVAAIRGRGGNTYADSVKGRFTISRDNAKNTVFLQMNSLKPEDTAVYYCAAPLLRDLRSPYSYNYWGQGTQVTVSS | low polyreactivity
QVQLVESGGGLVQAGGSLRLSCAASGSTFQPYAMGWYRQAAGNEREFVATISGSAGSTNYADSVKGRFTTSRDNAKSTVYLQMNSLKPEDTALYYCNALYRYLYRSGDYWGQGNQVTVSS | low polyreactivity
QVQLVESGGGLVQAGGSLRLSCAASGSTFQQYAMGWYRQAPGKEREFVARISYGGGSTYYADSVKGRFTISRDNAKNTVYLQMNSLKPEDTAVYYCNAVRKGYYRWVFQNRYYYWGQGTQVTVSS | high polyreactivity
QVQLVESGGGLVQAGGSLRLSCAASGSTFQQYAMGWYRQAPGKERELVAAITGSTGSTYYADSVKGRFTISRDNAKNTVYLQMNSLKPEDTAVYYCNAVRYSRYYRKYNYWGQGTQVTVSS | high polyreactivity
QVQLVESGGGLVQAGGSLRLSCAASGSTFQRNTMGWYRQAPGKERELVADITWSGGNTYYADSVKGRFTISRDNAKNTVYLQMNSLKPEDTAVYYCAAQNVRVGWHASTSYPCPLDYWGPGTQVTVSS | low polyreactivity
